Test results published in paper PMC11320999, “APH(3’)-Ie, an aminoglycoside-modifying enzyme discovered in a rabbit-derived Citrobacter gillenii isolate” (Frontiers in Cellular and Infection Microbiology, 2024).

What was measured:
Assay in all cases: purified protein
Type in all cases: biochemical, Citrobacter gillenii
Settings in all cases: 1 mM ATP, 1 mM MgCl2, 2 mM KCl, 100 mM HEPES pH 7.0, 25 °C
[1] = system: NC[C@@H]1O[C@H](O[C@H]2[C@@H](O)[C@H](O[C@@H]3[C@@H](O)[C@H](N)C[C@H](N)[C@H]3O[C@H]3O[C@H](CO)[C@@H](O)[C@H](O)[C@H]3N)O[C@@H]2CO)[C@H](N)[C@@H](O)[C@@H]1O
[2] = system: NC[C@H]1O[C@H](O[C@H]2[C@H](O)[C@@H](O[C@H]3O[C@H](CO)[C@@H](O)[C@H](N)[C@H]3O)[C@H](N)C[C@@H]2N)[C@H](O)[C@@H](O)[C@@H]1O
[3] = system: NC[C@H]1O[C@H](O[C@H]2[C@H](O[C@@H]3O[C@H](CO)[C@@H](O)[C@H]3O)[C@@H](O)[C@H](N)C[C@@H]2N)[C@H](N)[C@@H](O)[C@@H]1O

For APH(3’)-Ie (Citrobacter gillenii), the Km [1] was 7.74 ± 1.44 µM, the kcat [1] was 0.86 ± 0.01 s⁻¹ and the kcat/Km [1] was 114000 ± 28000 M⁻¹ s⁻¹. The Km [2] was 20.99 ± 1.84 µM, the kcat [2] was 1.06 ± 0.05 s⁻¹ and the kcat/Km [2] was 50800 ± 4400 M⁻¹ s⁻¹. The Km [3] was 4.22 ± 0.88 µM, the kcat [3] was 1.31 ± 0.09 s⁻¹ and the kcat/Km [3] was 323000 ± 81000 M⁻¹ s⁻¹.
